T1: human GDP-mannose 4,6-dehydratase (hGMD) (Homo sapiens, UniProt O60547)
T1 construct: gene GMDS; purified enzyme, wild type and point variants; homodimer in crystals (two to four homodimers per asymmetric unit); construct borders, tags and host only in supplement
T1 sequence (O60547 2-372 limits assumed): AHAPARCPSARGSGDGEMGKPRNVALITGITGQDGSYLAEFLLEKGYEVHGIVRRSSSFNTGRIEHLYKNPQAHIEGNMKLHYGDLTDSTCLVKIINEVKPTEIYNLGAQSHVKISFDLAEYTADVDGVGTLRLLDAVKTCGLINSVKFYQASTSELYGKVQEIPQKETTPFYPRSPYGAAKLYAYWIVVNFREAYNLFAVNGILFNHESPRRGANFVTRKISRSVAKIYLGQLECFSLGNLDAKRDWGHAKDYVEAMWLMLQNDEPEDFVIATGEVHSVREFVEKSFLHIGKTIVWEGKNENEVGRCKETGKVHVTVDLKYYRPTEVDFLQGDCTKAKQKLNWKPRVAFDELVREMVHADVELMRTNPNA

T2: human GDP-mannose 4,6-dehydratase (hGMD) (Homo sapiens, UniProt O60547, E157Q)
T2 construct: gene GMDS; purified enzyme, wild type and point variants; homodimer in crystals (two to four homodimers per asymmetric unit); construct borders, tags and host only in supplement
T2 sequence (O60547 2-372 E157Q limits assumed): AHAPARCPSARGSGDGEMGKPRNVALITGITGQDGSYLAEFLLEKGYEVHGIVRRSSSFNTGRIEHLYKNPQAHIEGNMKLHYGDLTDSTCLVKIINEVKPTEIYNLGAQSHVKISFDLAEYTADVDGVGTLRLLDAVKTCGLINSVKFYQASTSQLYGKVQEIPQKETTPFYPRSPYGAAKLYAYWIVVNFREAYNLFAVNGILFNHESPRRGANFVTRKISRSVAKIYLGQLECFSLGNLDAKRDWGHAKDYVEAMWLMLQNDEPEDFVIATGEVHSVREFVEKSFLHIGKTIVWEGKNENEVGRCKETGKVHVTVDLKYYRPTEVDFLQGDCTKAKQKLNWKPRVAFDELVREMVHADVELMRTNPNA

B1: human GDP-mannose 4,6-dehydratase (hGMD) (Homo sapiens) (protein)
chain: AHAPARCPSARGSGDGEMGKPRNVALITGITGQDGSYLAEFLLEKGYEVHGIVRRSSSFNTGRIEHLYKNPQAHIEGNMKLHYGDLTDSTCLVKIINEVKPTEIYNLGAQSHVKISFDLAEYTADVDGVGTLRLLDAVKTCGLINSVKFYQASTSELYGKVQEIPQKETTPFYPRSPYGAAKLYAYWIVVNFREAYNLFAVNGILFNHESPRRGANFVTRKISRSVAKIYLGQLECFSLGNLDAKRDWGHAKDYVEAMWLMLQNDEPEDFVIATGEVHSVREFVEKSFLHIGKTIVWEGKNENEVGRCKETGKVHVTVDLKYYRPTEVDFLQGDCTKAKQKLNWKPRVAFDELVREMVHADVELMRTNPNA
notes: purified enzyme, wild type and point variants; homodimer in crystals (two to four homodimers per asymmetric unit); construct borders, tags and host only in supplement
B2: human GDP-mannose 4,6-dehydratase (hGMD) (Homo sapiens; S156A) (protein)
chain: AHAPARCPSARGSGDGEMGKPRNVALITGITGQDGSYLAEFLLEKGYEVHGIVRRSSSFNTGRIEHLYKNPQAHIEGNMKLHYGDLTDSTCLVKIINEVKPTEIYNLGAQSHVKISFDLAEYTADVDGVGTLRLLDAVKTCGLINSVKFYQASTAELYGKVQEIPQKETTPFYPRSPYGAAKLYAYWIVVNFREAYNLFAVNGILFNHESPRRGANFVTRKISRSVAKIYLGQLECFSLGNLDAKRDWGHAKDYVEAMWLMLQNDEPEDFVIATGEVHSVREFVEKSFLHIGKTIVWEGKNENEVGRCKETGKVHVTVDLKYYRPTEVDFLQGDCTKAKQKLNWKPRVAFDELVREMVHADVELMRTNPNA
notes: as for B1

Legend:
[1] = molecular target: T1, human GDP-mannose 4,6-dehydratase (hGMD); assay: isothermal titration calorimetry; assay type: binding
[2] = molecular target: T2, human GDP-mannose 4,6-dehydratase (hGMD); assay: X-ray crystal structure, […] Å; conditions: GDP-mannose also bound; NADP+ binding site
[3] = substrate: Nc1nc2c(ncn2[C@@H]2O[C@H](COP(=O)(O)OP(=O)(O)O[C@H]3O[C@H](CO)[C@@H](O)[C@H](O)[C@@H]3O)[C@@H](O)[C@H]2O)c(=O)[nH]1; assay: initial rate measurements; assay type: biochemical, Homo sapiens; conditions: 37 °C
From the text: initial rate measurements on human GDP-mannose 4,6-dehydratase (hGMD)

| Molecule | Kd [1] [nM] | X-ray crystal structure, 1.47 Å [2] | Km [3] [µM] | kcat [3] [s⁻¹] |
| --- | --- | --- | --- | --- |
| Nc1nc2c(ncn2[C@@H]2O[C@H](COP(=O)(O)OP(=O)(O)O[C@H]3O[C@H](CO)[C@@H](F)[C@H](O)[C@@H]3O)[C@@H](O)[C@H]2O)c(=O)[nH]1 [GDP-4″-deoxy-4″-fluoro-mannose] | 1600 |  |  |  |
| NC(=O)c1ccc[n+]([C@@H]2O[C@H](COP(=O)(O)OP(=O)(O)OC[C@H]3O[C@@H](n4cnc5c(N)ncnc54)[C@H](OP(=O)(O)O)[C@@H]3O)[C@@H](O)[C@H]2O)c1 [NADP^+] |  | each monomer has bound GDP-mannose (purple) and NADP^+ (yellow) |  |  |
| B1 |  |  | 8 ± 1 | 0.42 ± 0.08 |
| B2 |  |  | 127 ± 5 | 0.05 ± 0.01 |

— paper PMC6454399, “A Parsimonious Mechanism of Sugar Dehydration by Human GDP-Mannose-4,6-dehydratase” (ACS Catalysis, 2019)
